Assay results published in patent US20050152926A1.

Assays:
[1] = molecular target: HLA A2 on RMA-S/A2 cells (human); assay: BB7.2 staining of RMA-S/A2 cells without peptide (peptide-free control); FIG 1(i)
[2] = molecular target: HLA A2 on RMA-S/A2 cells (human); assay: BB7.2 staining of RMA-S/A2 cells without peptide (peptide-free control); FIG 2(i)
[3] = molecular target: HLA A2 on RMA-S/A2 cells (human); assay: BB7.2 staining of RMA-S/A2 cells without peptide (peptide-free control); FIG 3(i)

Mean 2 [1]: 380
Δ Mean [1]: 193
Mean 2 [2]: 311
Δ Mean [2]: 154
Mean 2 [3]: 282
Δ Mean [3]: 151
Substance: anti-A2 specific BB7.2 monoclonal antibody
